Assay results as given in FireProtDB (doi:10.1021/bi00102a015).

Details: Rhodobacter capsulatus (strain ATCC BAA-309 / NBRC 16581 / SB1003); pH 7.5; 25 °C; GdnHCl; CD; Tris-HCl 20 mM; NaCl 40 mM; whole UniProt chain shown

B1: Cytochrome c2 wild type, P00094 (protein)
chain: MKISLTAATVAALVLAAPAFAGDAAKGEKEFNKCKTCHSIIAPDGTEIVKGAKTGPNLYGVVGRTAGTYPEFKYKDSIVALGASGFAWTEEDIATYVKDPGAFLKEKLDDKKAKTGMAFKLAKGGEDVAAYLASVVK
denaturant m value: 2.7 kcal/mol/M
denaturant midpoint (higher = more stable): 1.7 M
unfolding free energy: 18.4 kJ/mol
